Columns and labels:
NBS1 FHA+BRCT1/2 = NBS1 FHA+BRCT1/2 (UniProt O60934); test: peptide-bead pull-down of purified GST fusion; conditions: reference: non-phospho peptide …; sites S462
NBS1 = NBS1 (UniProt O60934); test: peptide-bead pull-down from cell lysate; conditions: reference: non-phospho peptide …; sites S462

binding against the reference (NBS1 FHA+BRCT1/2): stronger
binding against the reference (NBS1): stronger
Substance: UFL1 (from UniProt O94874) pS462 peptide
